Measured values published in US20240309103A1 (Regeneron, published 2024).

T1: mouse NPR1 extracellular domain expressed with a C-terminal mouse IgG2a (mNPR1-mFc) (mouse)
T1 chain: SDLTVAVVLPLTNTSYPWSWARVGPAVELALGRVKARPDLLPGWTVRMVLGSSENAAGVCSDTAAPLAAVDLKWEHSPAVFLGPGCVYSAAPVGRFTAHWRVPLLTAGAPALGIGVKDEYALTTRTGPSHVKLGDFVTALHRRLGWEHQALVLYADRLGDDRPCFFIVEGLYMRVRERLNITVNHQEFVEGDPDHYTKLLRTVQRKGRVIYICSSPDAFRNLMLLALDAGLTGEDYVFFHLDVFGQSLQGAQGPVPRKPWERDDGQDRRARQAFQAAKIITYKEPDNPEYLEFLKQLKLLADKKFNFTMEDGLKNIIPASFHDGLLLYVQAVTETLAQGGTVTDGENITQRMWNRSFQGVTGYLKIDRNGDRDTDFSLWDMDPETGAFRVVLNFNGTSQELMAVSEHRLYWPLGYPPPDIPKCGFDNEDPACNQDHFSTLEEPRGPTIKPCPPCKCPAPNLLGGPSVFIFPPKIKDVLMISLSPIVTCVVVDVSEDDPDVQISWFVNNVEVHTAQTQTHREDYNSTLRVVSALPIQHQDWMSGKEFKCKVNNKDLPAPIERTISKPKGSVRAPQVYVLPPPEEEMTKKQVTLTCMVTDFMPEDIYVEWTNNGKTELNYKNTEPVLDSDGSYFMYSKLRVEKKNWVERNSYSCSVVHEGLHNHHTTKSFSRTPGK

T2: human NPR1 on HEK293/hNPR1.myc.DDK cells (no hANP added) (human, UniProt P16066 33-1061)
T2 sequence (looked up): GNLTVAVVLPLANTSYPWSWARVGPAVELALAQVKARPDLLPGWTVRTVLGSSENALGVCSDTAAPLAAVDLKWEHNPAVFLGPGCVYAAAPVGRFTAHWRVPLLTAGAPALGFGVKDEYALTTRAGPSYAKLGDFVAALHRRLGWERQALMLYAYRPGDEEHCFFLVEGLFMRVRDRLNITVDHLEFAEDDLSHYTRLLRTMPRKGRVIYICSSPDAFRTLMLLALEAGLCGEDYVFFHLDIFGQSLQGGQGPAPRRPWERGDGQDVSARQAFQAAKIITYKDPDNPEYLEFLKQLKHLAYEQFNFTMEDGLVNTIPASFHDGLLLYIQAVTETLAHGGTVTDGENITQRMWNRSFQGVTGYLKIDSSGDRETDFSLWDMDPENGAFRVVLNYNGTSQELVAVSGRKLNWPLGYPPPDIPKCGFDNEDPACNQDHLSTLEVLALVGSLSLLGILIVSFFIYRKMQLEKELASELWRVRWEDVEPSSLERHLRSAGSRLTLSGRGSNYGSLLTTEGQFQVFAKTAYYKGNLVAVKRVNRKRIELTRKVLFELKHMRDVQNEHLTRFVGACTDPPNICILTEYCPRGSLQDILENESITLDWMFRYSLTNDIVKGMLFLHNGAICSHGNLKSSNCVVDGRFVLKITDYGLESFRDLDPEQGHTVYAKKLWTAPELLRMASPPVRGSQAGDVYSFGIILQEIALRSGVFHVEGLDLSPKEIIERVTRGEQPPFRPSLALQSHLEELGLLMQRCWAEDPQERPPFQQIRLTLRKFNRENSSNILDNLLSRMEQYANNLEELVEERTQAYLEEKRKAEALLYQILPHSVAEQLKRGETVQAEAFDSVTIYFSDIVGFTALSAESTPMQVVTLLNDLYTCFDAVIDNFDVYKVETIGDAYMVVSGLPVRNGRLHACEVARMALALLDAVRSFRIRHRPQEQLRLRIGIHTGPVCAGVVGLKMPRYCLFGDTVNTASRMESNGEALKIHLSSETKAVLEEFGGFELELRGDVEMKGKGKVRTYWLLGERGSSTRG


Key:
[1] = target: T1, mouse NPR1 extracellular domain …; experiment: SPR, Tables 21 to 26
Method in brief: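 Equilibrium dissociation constants come from surface plasmon resonance, with the NPR1 reagent flowed over captured antibody. The capture layer was anti-human Fc (monoclonal or goat polyclonal), amine-coupled onto a CM5 chip. Buffer was HEPES-buffered saline with EDTA and 0.05% Tween-20, pH 7.4.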

[2] = target: T2, human NPR1 on HEK293/hNPR1.myc.DDK …; experiment: cell-based or functional assay

Row | Binder | binding result [1] | EC50 of Ca2+ flux activation, Expt I [2] [nM] | EC50 of Ca2+ flux activation, Expt II [2] [nM]
1 | mAb22035 (antibody, V domains shown) VH: EVQLVESGGGLVQPGRSLRLSCAASGFTFDDYAMHWVRQAPGKGLEWVSGISWNSGTIGYADSVKGRFTMSRDNAKNSLYLQMNSLRPEDTALYYCAKDMGVSLALWGAFDIWGQGTMVTVSS VL: DIQMTQSPSSLSASVGDKVTITCRASQNIRTYLNWYQQKPGKAPKVLISTASSLQSGVPSRFSGSGSGTDFTLTISSLQPEDFAVFYCQQSFGIPRTFGQGTKVEIK | no binding | 83.7 to 384 | > 200
2 | mAb22033 (antibody, V domains shown) VH: QVQLVQSGAEVKKPGASVTVSCKASGYTFTDYYMHWVRQAPGQGLEWMGWIKPNSGGTNSAQRFQGRITMTWDTSISTAYMELSRLRSDDTAVYYCSRGGPVMNYYYYYGMDVWGQGTTVTVSS VL: NIQMTQSPSSLSASVGDRVTITCRASQSIDSYLNWYQQKPGKAPKLLIYVASSLQSGVPSRFSGSGSGKDFTLTISSLQPEDFATYYCQQSYSIPTFGQGTRLEIK | no binding | 83.7 to 384 | 41.6
